Biological target: T1, Sec17p (S. cerevisiae (endogenous in yeast vacuoles)), P32602
T1 chain: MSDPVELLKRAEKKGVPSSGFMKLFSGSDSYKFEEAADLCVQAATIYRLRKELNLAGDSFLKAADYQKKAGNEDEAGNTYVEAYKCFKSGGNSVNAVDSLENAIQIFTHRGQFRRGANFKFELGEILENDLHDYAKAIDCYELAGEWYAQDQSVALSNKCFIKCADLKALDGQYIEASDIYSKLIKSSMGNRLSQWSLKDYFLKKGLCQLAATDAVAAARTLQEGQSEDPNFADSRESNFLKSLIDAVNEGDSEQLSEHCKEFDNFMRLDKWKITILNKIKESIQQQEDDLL
Experiment: co-IP
Details: remark: other sources report otherwise

B1: Vam3p, Q12241 1-283 (natural protein)
chain: MSFFDIEAQSSKGNSQQEPQFSTNQKTKELSNLIETFAEQSRVLEKECTKIGSKRDSKELRYKIETELIPNCTSVRDKIESNILIHQNGKLSADFKNLKTKYQSLQQSYNQRKSLFPLKTPISPGTSKERKDIHPRTEAVRQDPESSYISIKVNEQSPLLHNEGQHQLQLQEEQEQQQQGLSQEELDFQTIIHQERSQQIGRIHTAVQEVNAIFHQLGSLVKEQGEQVTTIDENISHLHDNMQNANKQLTRADQHQRDRNKCGKVTLIIIIVVCMVVLLAVLS
Work on B1 yielded a percent of Vam3p coprecipitated with Sec17p greater than 50%.

From PMC2132603
